The DeepSol protein solubility set

test: soluble on expression in E. coli; label from the status in PepcDB or PDB records

**Q.** Which “soluble on expression in E. coli” value does the source give for “MSSRYSERNGLSETEKMTLPKVRKRKAQLVDEIEALKNEVREVDEELDQVYYTHPKSKEYHKIVVNGRKKFNQDPWKALDWLASRNVVAKDPQALALWMKAGEGLSKSAIGEILGDNRPFALETLDRFTKEHKLHDVPIVPALRQYLFSFRLPGESQKINRILEKFAEVYANQNPSYGNADQAHTVAYSCIMVNTLLHNPNVKDKPSLEKYIEMNEQLLEKGAITIEQLTEVYESVSVTQFKIPDEVSTSGKGTVNDILLHAEREGWLFKQSSNPLFSGALSWKKRWFVLSENCLYYFDQMTDKEPKGIITLANVGIRKVEAPSRPFMFEIFSLSDGQIKACKTEQDGRLVEGRHSIYKICAVNDEDMRSWINAISRMMAPQQHLLARPKSTH” here?
**A.** The value was “soluble”.

**Q.** Which “soluble on expression in E. coli” value does the source give for “MSSSNKESASDLIRAKDAGLLDIWALPSFDPHVEPEPEPEPEPVDEPAEMEEVPLDEVQPLTLEELESIRQEAWNEGFATGEKEGFHSTQLKVRQEAEVVLAAKVASLEQLMGHLLAPIAEQDTQIEKAVIHLVEHIARQVIQRELVTDSGQIASVLRDALKLLPMGAQNLRIFINPQDFLLVKAMRERHEEAWKIVEDEDLLPGGCRIETEHSRIDASVETRIALAISKMHDQLHEQVTHPAAADLSVDLDASPVSTAKTEDSDVDALDAP” here?
**A.** Its value is “not soluble”.

**Q.** With “MSSSTSPFLRAISRLIKASFFALSKFSLNCMYKSIQAELLKITYLAFMVKAMIFIPKEKHVYSFGPDMKEVARAKPGEIIVFETLDALGGQIRSEEDTVEKIDFSRVNPATGPVYIEGAEKGKILKVKILEIEVNDRGVIVTAPGAGVLGDLVKAPKTKVCRIANGFVQFGEFKIPVRPMIGVIGVASPEEIPTGTPGRHGGNMDTNLITEGSTVYFPIFKDGAYLALGDLHAVMADGEVCVSACEVSGKVTVKTEVLSGSIEWPIVETSDAYYILVSEEDLEDAVREAVKQGVDILRRANELSWDEAYMLASLIMDVQISQLVDPRKTVRVRIPKQYLKMSLFLEHHHHHH” as the sequence, how does the “soluble on expression in E. coli” value read?
**A.** The value was “not soluble”.

**Q.** Which “soluble on expression in E. coli” value does the source give for “MSSTAVQPPPPVPPPPPSAVPSAGKGIHSKLYNGMIGAADKFVPAKLRPLWMHPAGPKTIFFWAPVFKWGLVAAGLSDLARPADTISVSGCAALAATGIIWSRYSLVIIPKNYSLFAVNLFVGITQVVQLARAYHYHQSQEKLKQEQQQPAVQNLEHHHHHH” here?
**A.** The value was “not soluble”.

**Q.** For “MSSTECYGAPPHNYYQDWPTTHSYYPSVPSSYSPLNHHPADIWAAHPSNYIMGNGHVSPPATASGLSPPASRSSNSSAELPTGVTASQHNTYKWMHTKRSQRPAAPKKKVIDENGTNRTNFTTHQLTELEKEFHTAKYVNRTRRTEIASNLKLQEAQVKIWFQNRRMKEKKREKEKAFLARNTWESNSPTSSCSGEDVKNFK”, which “soluble on expression in E. coli” value is on record?
**A.** Its value is “not soluble”.

**Q.** With “MSSTMKDTQEAPVRWSRNWTPDAIRALVDQDNGKLDARIYADQDLYQLELERVFGRSWLMLGHETHIPKIGDYLTTYMGEDPVIMVRQKDQSIKVFLNQCRHRGMRIVRSDGGNAKAFTCTYHGWAYDIAGNLVNVPFEKEAFCDKKEGDCGFDKADWGPLQARVETYKGLVFANWDPEAPDLKTYLSDAMPYMDVMLDRTEAGTEAIGGIQKWVIPCNWKFAAEQFCSDMYHAGTMSHLSGVLAGLPPEMDLTQIQLSKNGNQFRSAWGGHGAGWFINDSSILLSVVGPKITQYWTQGPAAEKAARRVPQLPILDMFGQHMTVFPTCSFLPGINTIRTWHPRGPNEVEVWAFVLVDADAPEDIKEEFRLQNIRTFNAGGVFEQDDGENWVEIQRVMRGHKAKSTSLCAKMGLNVPNKNNPAYPGKTAYVYAEEAARGMYHHWSRMMSEPSWDTLKP” as the sequence, how does the “soluble on expression in E. coli” value read?
**A.** The value was “soluble”.

**Q.** For “MSSVAVLTQESFAEHRSGLVPQQIKVATLNSEEESDPPTYKDAFPPLPEKAACLESAQEPAGAWSNKIRPIKASVITQVFHVPLEERKYKDMNQFGEGEQAKICLEIMQRTGAHLELSLAKDQGLSIMVSGKLDAVMKARKDIVARLQTQASATVPIPKEHHRFVIGKNGEKLQDLELKTATKIQIPRPDDPSNQIKITGTKEGIEKARHEVLLISAEQDKRAVERLEVEKAFHPFIAGPYNRLVGEIMQETGTRINIPPPSVNRTEIVFTGEKEQLAQAVARIKKIYEEKKKKTTTIAVEVKKSQHKYVIGPKGNSLQEILERTGVSVEIPPSDSISETVILRGEPEKLGQALTEVYAKVASSKIKLCSDNS”, which “soluble on expression in E. coli” value is on record?
**A.** The value was “not soluble”.

**Q.** Which “soluble on expression in E. coli” value does the source give for “MSSYANHQALAGLTLGKSTDYRDTYDASLLQGVPRSLNRDPLGLKADNLPFHGTDIWTLYELSWLNAKGLPQVAVGHVELDYTSVNLIESKSFKLYLNSFNQTRFNNWDEVRQTLERDLSTCAQGKISVALYRLDELEGQPIGHFNGTCIDDQDITIDNYEFTTDYLENATCGEKVVEETLVSHLLKSNCLITHQPDWGSLQIQYRGRQIDREKLLRYLVSFRHHNEFHEQCVERIFNDLLRFCQPEKLSVYARYTRRGGLDINPWRSNSDFVPSTTRLVRQ” here?
**A.** Its value is “soluble”.

**Q.** For “MSTDITPSSAPQCPDHIVFEHVTKEFRTRSGTVRALDDVSLAIKRGSISAVIGHSGAGKSTLVRLINGLETPTRGRVLVDGTDVSQLSDKAMRPLRADIGMIFQQFNLFGSRTIYDNVAYPLKLAHWKKADEKKRITELLSFVGLTSKAWDHPDQLSGGQKQRVGIARALATKPSILLADESTSALDPETTADVLSLLKRVNAELGVTVVVITHEMEVVRSIAQQVSVLAAGHLVESGSARQVFAHPQSETTQRFLATIIGQHPNGEEQARLQSENPHARLVDVSSVASHSFGDALARISHTGASFQIVHGGVIEVHDGSLGNYTVALSGPAQAVEQAVQILEEVSNSAAPTTSATVPTPTEEAHLEHHHHHH”, which “soluble on expression in E. coli” value is on record?
**A.** The value was “not soluble”.

**Q.** Which “soluble on expression in E. coli” value does the source give for “MSTENDVSEENNSELDDVEDAKQDDRRRSTTVIMTMNVTTVPATESEGVRRNGSVRRRLSKQNATIEEPISLLSISDSPSENSDTTVPCIEEHPEEGKEEEKPAESSDVSKLRPPGLAQNKLWSTSKSLSRESTGTEYSDRSGIDLRNFVDRTLHKSEEDRKQLLEFEKQLKELILDDSTQSKRFELPSSYHRMLLHRCAAWFGLDHNVTNKQTDIVVNKSEKTKIPDDNFTDYIRHDNYVEDRLKRQNTCGSRKELHHMESFGDHSTSQYGSQASLNHDLLMMRRAQSFDVAAVTGPSVIQPQSPHHVRGLPMRQLSLNCPQQSMVTAPMSGPQGHQWAPQRSFDCSNNSYLCTGKHPMMRKAESFGGMANGISHGCYEQSVPVVCGTPPSVMVHHHHHHAHIQQPPTSNYTGYQVFEEMSMPSSNYQEPGMCSPGGTYYEYVPQPVVQPQQYARPIRYMPQDYRRPQGVQYMYGPPPPQQYMQYQPMVHPEVEVIVDPVQTQPFPQVSHFVLPDQQQGYSSSHQAETANSFIKASIDGGYGSMNQDVENAEKVEEV” here?
**A.** Its value is “not soluble”.

**Q.** For “MSTEPQFENPFIDRQLDGSKIHEISGHRFKATALVQPTCCAICSKLIYGLGKQGYRCLGCETVVHKRCHSLINDRCNFGPSSPRQPPPQELSSDSGELRHRIPSPTEPQVSTNHHFNKHFYTRPTFCDHCGSLLYGLSKQGVQCSDCLANVHHRCKEKAVHNCIVSSQ”, which “soluble on expression in E. coli” value is on record?
**A.** The value was “not soluble”.

**Q.** Which “soluble on expression in E. coli” value does the source give for “MSTHEKLLTADNPVLHQRAKAMRQEMSEAEAKLWQHLRAGRLNGYKFRRQQPMGNYIVDFMCVTPKLIVEADGGQHAEQAVYDHARTAYLNSLGFTVLRFWNHEILQQTNDVLAEILRVLQELEKQYAQ” here?
**A.** Its value is “not soluble”.

**Q.** With “MSTIIMDLCSYTRLGLTGYLLSRGVKKREINDIETVDDLAIACDSQRPSVVFINEDCFIHDASNSQRIKLIINQHPNTLFIVFMAIANVHFDEYLLVRKNLLISSKSIKPESLDDILGDILKKETTITSFLNMPTLSLSRTESSMLRMWMAGQGTIQISDQMNIKAKTVSSHKGNIKRKIKTHNKQVIYHVVRLTDNVTNGIFVNMR” as the sequence, how does the “soluble on expression in E. coli” value read?
**A.** The value was “not soluble”.

**Q.** For “MSTNALQPKTIGGNNNILEVIRLKRADLRKSDRKVAELVLADPKRVINATIAEAAEWAEVSQPTVIRFCASIGCQGYQDFKLRLAQSLALGMSATHSVIDADDTPAKVSEKIFDYTITSLDWVRNHLDPVQVDRAVDALAKANRIEFFGFGASGIVARDAQQKFPLFGVPCGAETDAHQQIMVVSMLKPGDVAVVISNTGATLAIIETARRARESGCQVIGIVGSDGPLVEFCDIVLMVETLENTNIYTPTISRIAALTVVDILSTSVALRRGAEHVDLFTGMKRNLRYLRTSTET”, which “soluble on expression in E. coli” value is on record?
**A.** The value was “not soluble”.

**Q.** With “MSTQFKLPLASPLTHGREDFAVSPSNGEAVARLDAWPDWAEGRLVLVGPAGCGKSHLARAWAAAAGAVVVEAANPDAASVDLSALRGRAVLVEDADRRAQGAAVSDEALFHILNMAGVDGGTVLLTGRTAPLTWSAEVADLRSRLNALSVAEIAEPDDAVLEAVLRRAFAAAWWKPEPDLYPYLLARLPRSAAEAQAAAALLAEAAADGRRELTKALAREVLEGFEGDEGLEHHHHHH” as the sequence, how does the “soluble on expression in E. coli” value read?
**A.** The value was “not soluble”.
